The values below come from IntAct's records for PubMed 29039417.

Sequences and labels used below:
B1: BBSome complex member BBS4 (Homo sapiens), Q96RK4 (parent)
chain: MAEERVATRTQFPVSTESQKPRQKKAPEFPILEKQNWLIHLHYIRKDYEACKAVIKEQLQETQGLCEYAIYVQALIFRLEGNIQESLELFQTCAVLSPQSADNLKQVARSLFLLGKHKAAIEVYNEAAKLNQKDWEISHNLGVCYIYLKQFNKAQDQLHNALNLNRHDLTYIMLGKIHLLEGDLDKAIEVYKKAVEFSPENTELLTTLGLLYLQLGIYQKAFEHLGNALTYDPTNYKAILAAGSMMQTHGDFDVALTKYRVVACAVPESPPLWNNIGMCFFGKKKYVAAISCLKRANYLAPFDWKILYNLGLVHLTMQQYASAFHFLSAAINFQPKMGELYMLLAVALTNLEDIENAKRAYAEAVHLDKCNPLVNLNYAVLLYNQGEKKNALAQYQEMEKKVSLLKDNSSLEFDSEMVEMAQKLGAALQVGEALVWTKPVKDPKSKHQTTSTSKPASFQQPLGSNQALGQAMSSAAAYRTLPSGAGGTSQFTKPPSLPLEPEPAVESSPTETSEQIREK
partner: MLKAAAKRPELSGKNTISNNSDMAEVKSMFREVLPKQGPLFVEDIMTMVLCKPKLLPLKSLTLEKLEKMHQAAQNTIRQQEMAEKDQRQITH

In the experiment the parent is B1. The settings on record: with bbip1_human BBIP1, A8MTZ0.
For T488A, the “effect of a mutation on the interaction” value was “with no effect”.
In the case of T488E it was “with no effect”; in that of T488K, “with no effect”.
The same measure for Q460K: “with no effect”; for Q460A: “with no effect”; for Q460E: “with no effect”.
The same measure for Q448K: “with no effect”; for Q448E: “with no effect”; for Q448A: “with no effect”.
On to Q470A, for which the “effect of a mutation on the interaction” value is reported as “with no effect”.
Q470E: the “effect of a mutation on the interaction” value is given as “with no effect”.
The same measure for Q470K: “with no effect”; for P461A: “with no effect”.
The same measure for P461K: “with no effect”; for P461E: “with no effect”.
The same measure for S464K: “with no effect”; for S464A: “with no effect”; for S464E: “with no effect”.
For the variant A476K, the “effect of a mutation on the interaction” value was “with no effect”.
The same measure for A476E: “with no effect”; for A475K: “with no effect”; for A475E: “with no effect”.
The same measure for T452A: “with no effect”; for T452K: “with no effect”; for T452E: “with no effect”.
In the case of S474A it was “with no effect”; in that of S474K, “with no effect”; in that of S474E, “with no effect”.
On to S496A, for which the “effect of a mutation on the interaction” value is on record as “with no effect”.
In the case of S496K it was “with no effect”.
The same measure for S496E: “with no effect”; for P494K: “with no effect”.
On to P494A, for which the “effect of a mutation on the interaction” value is given as “with no effect”.
In the case of P494E it was “with no effect”.
On to K446A, for which the “effect of a mutation on the interaction” value was “with no effect”.
The same measure for K446E: “with no effect”; for M472K: “with no effect”.
Take M472E: the “effect of a mutation on the interaction” value is “with no effect”.
The same measure for M472A: “with no effect”.
Turning to R479E, the “effect of a mutation on the interaction” value is “with no effect”.
In the case of R479A it was “with no effect”; in that of R479K, “with no effect”; in that of F491E, “with no effect”.
The same measure for F491K: “with no effect”; for F491A: “with no effect”; for L497E: “with no effect”.
The same measure for L497A: “with no effect”.
Regarding L497K, the “effect of a mutation on the interaction” value is listed as “with no effect”.
In the case of L481E it was “with no effect”.
The same measure for L481A: “with no effect”; for L481K: “with no effect”; for Q459E: “with no effect”.
On to Q459A, for which the “effect of a mutation on the interaction” value is reported as “with no effect”.
In the case of Q459K it was “with no effect”; in that of T492K, “with no effect”.
In the case of T492E it was “with no effect”.
T492A: the “effect of a mutation on the interaction” value is “with no effect”.
In the case of G486A it was “with no effect”; in that of G486E, “with no effect”.
On to G486K, for which the “effect of a mutation on the interaction” value is “with no effect”.
The same measure for V435A: “with no effect”; for V435E: “with no effect”; for V435K: “with no effect”.
In the case of P443E it was “with no effect”; in that of P443A, “with no effect”.
As for P443K, the “effect of a mutation on the interaction” value is “with no effect”.
The same measure for A477K: “with no effect”; for A477E: “with no effect”.
Take A471E: the “effect of a mutation on the interaction” value is “with no effect”.
In the case of A471K it was “with no effect”.
In the case of A485E it was “with no effect”; in that of A485K, “with no effect”.
In the case of G487A it was “with no effect”.
Consider G487E, for which the “effect of a mutation on the interaction” value is on record as “with no effect”.
The same measure for G487K: “with no effect”; for K454E: “with no effect”.
With K454A, the “effect of a mutation on the interaction” value is reported as “with no effect”.
For the variant D442E, the “effect of a mutation on the interaction” value is on record as “with no effect”.
For the variant D442A, the “effect of a mutation on the interaction” value is “with no effect”.
The same measure for D442K: “with no effect”.
The same measure for S489A: “with no effect”; for S489E: “with no effect”; for S489K: “with no effect”.
The same measure for S457A: “with no effect”; for S457E: “with no effect”; for S457K: “with no effect”.
L499A: the “effect of a mutation on the interaction” value is listed as “with no effect”.
Regarding L499E, the “effect of a mutation on the interaction” value is recorded as “with no effect”.
Regarding L499K, the “effect of a mutation on the interaction” value is listed as “with no effect”.
As to Q466A, the “effect of a mutation on the interaction” value was “with no effect”.
In the case of Q466K, the “effect of a mutation on the interaction” value was “with no effect”.
Take Q466E: the “effect of a mutation on the interaction” value is listed as “with no effect”.
For the variant G484A, the “effect of a mutation on the interaction” value is “with no effect”.
The same measure for G484E: “with no effect”.
